According to patent US10941182 (Amgen, dated 2021):
Starred links: 1 amine or outer side, 2 acyl side, 3 side chain; linkers in the order of their positions; H or OH if unused. Non-standard residues stand in square brackets, D forms with d. *: point of attachment. AC4Abu = α-carboxy-4-aminobutyric acid, O=C(C(CCN[*:1])C(=O)[*:3])[*:2]; Oic = O=C(O)[C@@H]1C[C@@H]2CCCC[C@@H]2N1; Phe(4-Cl) = N[C@@H](Cc1ccc(Cl)cc1)C(=O)O; dPhe(4-I) = N[C@H](Cc1ccc(I)cc1)C(=O)O; γGlu = O=C(O)[C@H](CCC(=O)[*:2])N[*:1]; d2Nal = N[C@H](Cc1ccc2ccccc2c1)C(=O)O; dIgl = N[C@@H](C(=O)O)C1Cc2ccccc2C1; B4ClF = β-4-chloro-L-phenylalanine; NMeR = CN[C@@H](CCCNC(=N)N)C(=O)O; Tridecanoyl = CCCCCCCCCCCCC(=O)*; hArg = N=C(N)NCCCC[C@H](N)C(=O)O; Cha = N[C@@H](CC1CCCCC1)C(=O)O; αMeL = CC(C)C[C@](C)(N)C(=O)O; Aic = NC1(C(=O)O)Cc2ccccc2C1; Tle = CC(C)(C)[C@H](N)C(=O)O; Nle = CCCC[C@H](N)C(=O)O; Deg = CCC(N)(CC)C(=O)O; AEEA = NCCOCCOCC(=O)O

T1: human APJ receptor (human, UniProt P35414 1-380)
T1 sequence (looked up): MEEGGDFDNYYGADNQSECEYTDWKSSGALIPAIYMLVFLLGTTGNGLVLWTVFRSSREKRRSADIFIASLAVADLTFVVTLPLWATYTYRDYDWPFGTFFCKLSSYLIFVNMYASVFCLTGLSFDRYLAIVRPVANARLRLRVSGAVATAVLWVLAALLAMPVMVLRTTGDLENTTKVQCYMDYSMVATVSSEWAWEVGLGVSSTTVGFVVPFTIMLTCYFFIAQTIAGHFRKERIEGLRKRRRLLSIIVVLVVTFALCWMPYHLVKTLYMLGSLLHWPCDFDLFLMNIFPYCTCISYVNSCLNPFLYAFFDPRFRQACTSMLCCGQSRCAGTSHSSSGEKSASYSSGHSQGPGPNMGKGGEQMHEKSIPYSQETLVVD

T2: rat APJ receptor (rat, UniProt Q9JHG3 1-377)
T2 sequence (looked up): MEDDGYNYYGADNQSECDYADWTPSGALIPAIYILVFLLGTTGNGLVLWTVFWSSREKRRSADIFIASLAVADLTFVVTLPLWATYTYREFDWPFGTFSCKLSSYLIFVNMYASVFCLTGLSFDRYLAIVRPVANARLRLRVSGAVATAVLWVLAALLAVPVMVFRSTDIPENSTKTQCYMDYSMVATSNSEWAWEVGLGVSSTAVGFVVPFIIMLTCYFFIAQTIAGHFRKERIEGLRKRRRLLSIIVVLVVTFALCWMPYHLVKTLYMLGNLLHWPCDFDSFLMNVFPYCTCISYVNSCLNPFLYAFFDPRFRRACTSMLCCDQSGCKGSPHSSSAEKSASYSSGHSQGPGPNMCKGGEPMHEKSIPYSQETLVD


What was measured:
human APJ receptor = biological target: T1, human APJ receptor; test: cell-based or functional assay
rat APJ receptor = biological target: T2, rat APJ receptor; test: cell-based or functional assay

EC50 Human APJ Receptor (GTPγS assay) (human APJ receptor) | EC50 Rat APJ Receptor (GTPγS assay) (rat APJ receptor) | Binder
19 nM | 20.8 nM | Tridecanoyl-[AC4Abu][AEEA][AEEA][dQ][hArg]P[dR][Cha]SHKG[Oic][Nle][dPhe(4-I)]-OH (SMILES CCCCCCCCCCCCC(=O)NCCC(C(=O)O)C(=O)NCCOCCOCC(=O)NCCOCCOCC(=O)N[C@H](CCC(N)=O)C(=O)N[C@@H](CCCCNC(=N)N)C(=O)N1CCC[C@H]1C(=O)N[C@H](CCCNC(=N)N)C(=O)N[C@@H](CC1CCCCC1)C(=O)N[C@@H](CO)C(=O)N[C@@H](Cc1c[nH]cn1)C(=O)N[C@@H](CCCCN)C(=O)NCC(=O)N1[C@H](C(=O)N[C@@H](CCCC)C(=O)N[C@H](Cc2ccc(I)cc2)C(=O)O)C[C@@H]2CCCC[C@@H]21) [Apelin polypeptide SEQ ID NO: 453]
5.13 nM | 33.9 nM | Tridecanoyl-[γGlu][AEEA][AEEA][dQ][hArg]P[dR][Cha]SHKG[Oic][Nle][Oic]-OH (SMILES CCCCCCCCCCCCC(=O)N[C@@H](CCC(=O)NCCOCCOCC(=O)NCCOCCOCC(=O)N[C@H](CCC(N)=O)C(=O)N[C@@H](CCCCNC(=N)N)C(=O)N1CCC[C@H]1C(=O)N[C@H](CCCNC(=N)N)C(=O)N[C@@H](CC1CCCCC1)C(=O)N[C@@H](CO)C(=O)N[C@@H](Cc1c[nH]cn1)C(=O)N[C@@H](CCCCN)C(=O)NCC(=O)N1[C@H](C(=O)N[C@@H](CCCC)C(=O)N2[C@H](C(=O)O)C[C@@H]3CCCC[C@@H]32)C[C@@H]2CCCC[C@@H]21)C(=O)O) [Apelin polypeptide SEQ ID NO: 596]
50 nM | 54.8 nM | Tridecanoyl-[γGlu][AEEA][AEEA][dQ][hArg]P[dR][Cha]SHKG[Oic][Nle][Aic]-OH (SMILES CCCCCCCCCCCCC(=O)N[C@@H](CCC(=O)NCCOCCOCC(=O)NCCOCCOCC(=O)N[C@H](CCC(N)=O)C(=O)N[C@@H](CCCCNC(=N)N)C(=O)N1CCC[C@H]1C(=O)N[C@H](CCCNC(=N)N)C(=O)N[C@@H](CC1CCCCC1)C(=O)N[C@@H](CO)C(=O)N[C@@H](Cc1c[nH]cn1)C(=O)N[C@@H](CCCCN)C(=O)NCC(=O)N1[C@H](C(=O)N[C@@H](CCCC)C(=O)NC2(C(=O)O)Cc3ccccc3C2)C[C@@H]2CCCC[C@@H]21)C(=O)O) [Apelin polypeptide SEQ ID NO: 595]
11 nM | 11.4 nM | Tridecanoyl-[γGlu][AEEA][AEEA][dQ][hArg]P[dR][Deg]SHKG[Oic][Nle]P[Phe(4-Cl)]-OH (SMILES CCCCCCCCCCCCC(=O)N[C@@H](CCC(=O)NCCOCCOCC(=O)NCCOCCOCC(=O)N[C@H](CCC(N)=O)C(=O)N[C@@H](CCCCNC(=N)N)C(=O)N1CCC[C@H]1C(=O)N[C@H](CCCNC(=N)N)C(=O)NC(CC)(CC)C(=O)N[C@@H](CO)C(=O)N[C@@H](Cc1c[nH]cn1)C(=O)N[C@@H](CCCCN)C(=O)NCC(=O)N1[C@H](C(=O)N[C@@H](CCCC)C(=O)N2CCC[C@H]2C(=O)N[C@@H](Cc2ccc(Cl)cc2)C(=O)O)C[C@@H]2CCCC[C@@H]21)C(=O)O) [Apelin polypeptide SEQ ID NO: 434]

Second part, the binder before the results:

Binder | EC50 Human APJ Receptor (GTPγS assay) (human APJ receptor) | EC50 Rat APJ Receptor (GTPγS assay) (rat APJ receptor)
Tridecanoyl-[γGlu][AEEA][AEEA][dQ][hArg]P[dR][Cha]SHKG[Oic][Nle]P[B4ClF]-OH [Apelin polypeptide SEQ ID NO: 432] | 11.1 nM | 16.2 nM
Tridecanoyl-[γGlu][AEEA][AEEA][dQ][hArg]P[dR][Tle]SHKG[Oic][Nle]P[Phe(4-Cl)]-OH (SMILES CCCCCCCCCCCCC(=O)N[C@@H](CCC(=O)NCCOCCOCC(=O)NCCOCCOCC(=O)N[C@H](CCC(N)=O)C(=O)N[C@@H](CCCCNC(=N)N)C(=O)N1CCC[C@H]1C(=O)N[C@H](CCCNC(=N)N)C(=O)N[C@H](C(=O)N[C@@H](CO)C(=O)N[C@@H](Cc1c[nH]cn1)C(=O)N[C@@H](CCCCN)C(=O)NCC(=O)N1[C@H](C(=O)N[C@@H](CCCC)C(=O)N2CCC[C@H]2C(=O)N[C@@H](Cc2ccc(Cl)cc2)C(=O)O)C[C@@H]2CCCC[C@@H]21)C(C)(C)C)C(=O)O) [Apelin polypeptide SEQ ID NO: 433] | 12.8 nM | 19.8 nM
Tridecanoyl-[AC4Abu][AEEA][AEEA]Q[NMeR][αMeL]SHKG[Oic][Nle]P[Phe(4-Cl)]-OH (SMILES CCCCCCCCCCCCC(=O)NCCC(C(=O)O)C(=O)NCCOCCOCC(=O)NCCOCCOCC(=O)N[C@@H](CCC(N)=O)C(=O)N(C)[C@@H](CCCNC(=N)N)C(=O)N[C@@](C)(CC(C)C)C(=O)N[C@@H](CO)C(=O)N[C@@H](Cc1c[nH]cn1)C(=O)N[C@@H](CCCCN)C(=O)NCC(=O)N1[C@H](C(=O)N[C@@H](CCCC)C(=O)N2CCC[C@H]2C(=O)N[C@@H](Cc2ccc(Cl)cc2)C(=O)O)C[C@@H]2CCCC[C@@H]21) [Apelin polypeptide SEQ ID NO: 397] | 6.36 nM | 16.5 nM
Tridecanoyl-[γGlu][AEEA][AEEA][dQ][hArg]P[dR][Cha]SHKG[Oic][Nle]P[dIgl]-OH (SMILES CCCCCCCCCCCCC(=O)N[C@@H](CCC(=O)NCCOCCOCC(=O)NCCOCCOCC(=O)N[C@H](CCC(N)=O)C(=O)N[C@@H](CCCCNC(=N)N)C(=O)N1CCC[C@H]1C(=O)N[C@H](CCCNC(=N)N)C(=O)N[C@@H](CC1CCCCC1)C(=O)N[C@@H](CO)C(=O)N[C@@H](Cc1c[nH]cn1)C(=O)N[C@@H](CCCCN)C(=O)NCC(=O)N1[C@H](C(=O)N[C@@H](CCCC)C(=O)N2CCC[C@H]2C(=O)N[C@@H](C(=O)O)C2Cc3ccccc3C2)C[C@@H]2CCCC[C@@H]21)C(=O)O) [Apelin polypeptide SEQ ID NO: 431] | 31.2 nM | 25 nM
Tridecanoyl-[AC4Abu][AEEA][AEEA][dQ][hArg]P[dR][Cha]SHKG[Oic][Nle]P[d2Nal]-OH (SMILES CCCCCCCCCCCCC(=O)NCCC(C(=O)O)C(=O)NCCOCCOCC(=O)NCCOCCOCC(=O)N[C@H](CCC(N)=O)C(=O)N[C@@H](CCCCNC(=N)N)C(=O)N1CCC[C@H]1C(=O)N[C@H](CCCNC(=N)N)C(=O)N[C@@H](CC1CCCCC1)C(=O)N[C@@H](CO)C(=O)N[C@@H](Cc1c[nH]cn1)C(=O)N[C@@H](CCCCN)C(=O)NCC(=O)N1[C@H](C(=O)N[C@@H](CCCC)C(=O)N2CCC[C@H]2C(=O)N[C@H](Cc2ccc3ccccc3c2)C(=O)O)C[C@@H]2CCCC[C@@H]21) [Apelin polypeptide SEQ ID NO: 407] | 124 nM | 216 nM
Tridecanoyl-[γGlu][AEEA][AEEA][dQ][hArg]P[dR][Cha]SYKG[Oic][Nle]P[Phe(4-Cl)]-OH (SMILES CCCCCCCCCCCCC(=O)N[C@@H](CCC(=O)NCCOCCOCC(=O)NCCOCCOCC(=O)N[C@H](CCC(N)=O)C(=O)N[C@@H](CCCCNC(=N)N)C(=O)N1CCC[C@H]1C(=O)N[C@H](CCCNC(=N)N)C(=O)N[C@@H](CC1CCCCC1)C(=O)N[C@@H](CO)C(=O)N[C@@H](Cc1ccc(O)cc1)C(=O)N[C@@H](CCCCN)C(=O)NCC(=O)N1[C@H](C(=O)N[C@@H](CCCC)C(=O)N2CCC[C@H]2C(=O)N[C@@H](Cc2ccc(Cl)cc2)C(=O)O)C[C@@H]2CCCC[C@@H]21)C(=O)O) [Apelin polypeptide SEQ ID NO: 373] | 2.81 nM | 3.31 nM
